# Data: patent US20160000910A1
# Assays:
# [1] = molecular target: Aβ1-42 peptide fraction enriched in oligomers (high molecular weight fraction from SEC); test: ELISA on coated fraction; antibody dilution 1:4 (starting dilution 0.5 µg/ml); assay 3
# [2] = molecular target: Aβ1-42 peptide fraction consisting primarily of monomers (LMW monomer fraction from SEC); test: as above
# [3] = molecular target: Aβ1-42 peptide fraction enriched in oligomers (high molecular weight fraction from SEC); test: ELISA on coated fraction; antibody dilution 1:32 (starting dilution 0.5 µg/ml); assay 3
# [4] = molecular target: Aβ1-42 peptide fraction consisting primarily of monomers (LMW monomer fraction from SEC); test: as above
# [5] = molecular target: Aβ1-42 peptide fraction enriched in oligomers (high molecular weight fraction from SEC); test: ELISA on coated fraction; antibody dilution 1:32 (starting dilution 0.5 µg/ml); mean of 3 assays
# [6] = molecular target: Aβ1-42 peptide fraction consisting primarily of monomers (LMW monomer fraction from SEC); test: as above
# [7] = molecular target: Aβ1-42 peptide fraction enriched in oligomers (high molecular weight fraction from SEC); test: ELISA on coated fraction; antibody dilution 1:4 (starting dilution 0.5 µg/ml); mean of 3 assays
# [8] = molecular target: Aβ1-42 peptide fraction consisting primarily of monomers (LMW monomer fraction from SEC); test: as above
# [9] = molecular target: Aβ1-42 peptide fraction enriched in oligomers (high molecular weight fraction from SEC); test: ELISA on coated fraction; antibody dilution 1:8 (starting dilution 0.5 µg/ml); mean of 3 assays
# [10] = molecular target: Aβ1-42 peptide fraction enriched in oligomers (high molecular weight fraction from SEC); test: ELISA on coated fraction; antibody dilution 1:2 (starting dilution 0.5 µg/ml); assay 3
# [11] = molecular target: Aβ1-42 peptide fraction consisting primarily of monomers (LMW monomer fraction from SEC); test: as above
# [12] = molecular target: Aβ1-42 peptide fraction enriched in oligomers (high molecular weight fraction from SEC); test: ELISA on coated fraction; antibody dilution 1:8 (starting dilution 0.5 µg/ml); assay 2
# [13] = molecular target: Aβ1-42 peptide fraction enriched in oligomers (high molecular weight fraction from SEC); test: ELISA on coated fraction; antibody dilution 1:64 (starting dilution 0.5 µg/ml); assay 3
# [14] = molecular target: Aβ1-42 peptide fraction consisting primarily of monomers (LMW monomer fraction from SEC); test: as above
# [15] = molecular target: Aβ1-42 peptide fraction enriched in oligomers (high molecular weight fraction from SEC); test: ELISA on coated fraction; antibody dilution 1:128 (starting dilution 0.5 µg/ml); assay 3
# [16] = molecular target: Aβ1-42 peptide fraction consisting primarily of monomers (LMW monomer fraction from SEC); test: as above
# [17] = molecular target: Aβ1-42 peptide fraction enriched in oligomers (high molecular weight fraction from SEC); test: ELISA on coated fraction; antibody dilution 1:1 (starting dilution 0.5 µg/ml); mean of 3 assays
# [18] = molecular target: Aβ1-42 peptide fraction consisting primarily of monomers (LMW monomer fraction from SEC); test: as above
# [19] = molecular target: Aβ1-42 peptide fraction enriched in oligomers (high molecular weight fraction from SEC); test: ELISA on coated fraction; antibody dilution 1:16 (starting dilution 0.5 µg/ml); assay 1
# [20] = molecular target: Aβ1-42 peptide fraction consisting primarily of monomers (LMW monomer fraction from SEC); test: as above
# [21] = molecular target: Aβ1-42 peptide fraction enriched in oligomers (high molecular weight fraction from SEC); test: ELISA on coated fraction; antibody dilution 1:1 (starting dilution 0.5 µg/ml); assay 1
# [22] = molecular target: Aβ1-42 peptide fraction consisting primarily of monomers (LMW monomer fraction from SEC); test: as above
# [23] = molecular target: Aβ1-42 peptide fraction enriched in oligomers (high molecular weight fraction from SEC); test: ELISA on coated fraction; antibody dilution 1:16 (starting dilution 0.5 µg/ml); assay 2
# [24] = molecular target: Aβ1-42 peptide fraction consisting primarily of monomers (LMW monomer fraction from SEC); test: as above
# [25] = molecular target: Aβ1-42 peptide fraction enriched in oligomers (high molecular weight fraction from SEC); test: ELISA on coated fraction; antibody dilution 1:2 (starting dilution 0.5 µg/ml); mean of 3 assays
# [26] = molecular target: Aβ1-42 peptide fraction consisting primarily of monomers (LMW monomer fraction from SEC); test: as above
# [27] = molecular target: Aβ1-42 peptide fraction enriched in oligomers (high molecular weight fraction from SEC); test: ELISA on coated fraction; antibody dilution 1:128 (starting dilution 0.5 µg/ml); mean of 3 assays
# [28] = molecular target: Aβ1-42 peptide fraction consisting primarily of monomers (LMW monomer fraction from SEC); test: as above
substance,measurement,setting,value
control antibody 6E10,O.D. (O.D. at 405 nm),[1],3.64
same,O.D. (O.D. at 405 nm),[2],3.52
same,O.D. (O.D. at 405 nm),[3],1.4
same,O.D. (O.D. at 405 nm),[4],1.54
same,O.D. (mean) (O.D. at 405 nm),[5],1.32
same,O.D. (mean) (O.D. at 405 nm),[6],1.36
same,O.D. (mean) (O.D. at 405 nm),[7],3.37
same,O.D. (mean) (O.D. at 405 nm),[8],3.27
same,O.D. (mean) (O.D. at 405 nm),[9],2.98
same,O.D. (O.D. at 405 nm),[10],3.83
same,O.D. (O.D. at 405 nm),[11],4
same,O.D. (O.D. at 405 nm),[12],2.99
same,O.D. (O.D. at 405 nm),[13],0.95
same,O.D. (O.D. at 405 nm),[14],1.08
same,O.D. (O.D. at 405 nm),[15],0.66
same,O.D. (O.D. at 405 nm),[16],0.86
same,O.D. (mean) (O.D. at 405 nm),[17],3.64
same,O.D. (mean) (O.D. at 405 nm),[18],3.83
same,O.D. (O.D. at 405 nm),[19],1.78
same,O.D. (O.D. at 405 nm),[20],1.78
same,O.D. (O.D. at 405 nm),[21],3.36
same,O.D. (O.D. at 405 nm),[22],3.67
same,O.D. (O.D. at 405 nm),[23],1.92
same,O.D. (O.D. at 405 nm),[24],1.94
same,O.D. (mean) (O.D. at 405 nm),[25],3.59
same,O.D. (mean) (O.D. at 405 nm),[26],3.59
same,O.D. (mean) (O.D. at 405 nm),[27],0.63
same,O.D. (mean) (O.D. at 405 nm),[28],0.75
